Molecular target: Protein encoded by the control plasmid pGBKT7-53
Assay: two-hybrid

In the case of “Protein encoded by the control plasmid pGADT7-T (domain or fragment)”, the α-gal activity, fold over baseline (fold over baseline) was > 35000.

Source: article PMC2736913
